First the molecules themselves.
T1: receptor(s) of FC5 on HBEC-D3 cells (human microvascular brain endothelial cells) (human, UniProt Q9NV96 2-361)
T1 construct: whole, on cells; The assay used whole, untransfected endothelial cells; also called human brain endothelial cells; TMEM30A
T1 sequence (looked up): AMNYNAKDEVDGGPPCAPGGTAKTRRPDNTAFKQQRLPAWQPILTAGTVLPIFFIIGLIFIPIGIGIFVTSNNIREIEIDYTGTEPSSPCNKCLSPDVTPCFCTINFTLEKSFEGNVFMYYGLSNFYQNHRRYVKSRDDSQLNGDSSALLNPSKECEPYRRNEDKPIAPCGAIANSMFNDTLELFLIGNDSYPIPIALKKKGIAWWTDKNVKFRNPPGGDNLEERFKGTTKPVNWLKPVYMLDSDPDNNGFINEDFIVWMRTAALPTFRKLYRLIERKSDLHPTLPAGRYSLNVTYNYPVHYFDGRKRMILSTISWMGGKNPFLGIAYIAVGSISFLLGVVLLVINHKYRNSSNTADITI

B1: FC5-H1 (VHH)
VHH: EVQLVESGGGLVQPGGSLRLSCAASGFKITHYTMGWVRQAPGKGLEWVSRITWGGDNTFYSNSVKGRFTISRDNSKNTLYLQMNSLRAEDTAVYYCAAGSTSTATPLRVDYWGQGTLVTVSS
notes: Humanized variant of FC5, expressed with His5 and c-myc tags; not shown: His5 and c-myc tags
B2: FC5-H2 (VHH)
VHH: B1 VHH with L79V
notes: as for B1
B3: FC5 VHH (parental camelid single domain antibody) (VHH)
VHH: DVQLQASGGGLVQAGGSLRLSCAASGFKITHYTMGWFRQAPGKEREFVSRITWGGDNTFYSNSVKGRFTISRDNAKNTVYLQMNSLKPEDTADYYCAAGSTSTATPLRVDYWGKGTQVTVSS
notes: Llama-derived VHH expressed in E. coli in fusion with His5 and c-myc tags; also called FC5 camelid; sdAb FC5; not shown: His5 and c-myc tags
B4: FC5-H7 (VHH)
VHH: B1 VHH with V37F, G44E, L45R, W47F
notes: as for B1
B5: FC5-H3 (VHH)
VHH: B1 VHH with V37F, W47F, L79V
notes: as for B1

Changes are numbered by the printed parent chain.

For one assay, the target named is receptor(s) of FC5 on SV-ARBEC cells (SV40-immortalized adult rat brain microvascular endothelial cells) (rat) (UniProt Q6AY41). In words: Mirrorball microplate cytometry on SV-ARBEC cells in suspension, anti-c-myc Alexa 488 detection.
Consider B1, for which the SV-ARBEC binding (MMFI at 1.3 µM antibody) was 27 MMFI.
In the case of B2, the SV-ARBEC binding (MMFI at 1.3 µM antibody) stood at 23.1 MMFI.
Still for that read-out and setting: the figure for B3 is 20.3 MMFI; for B4 it is 64.2 MMFI.
Still for that read-out and setting: in the case of B5 it was 40.2 MMFI.

The next assay has as its target T1, receptor(s) of FC5 on HBEC-D3 cells …. Kind of assay: Mirrorball microplate cytometry on HBEC-D3 cells in suspension, anti-c-myc Alexa 488 detection. As to the method:
Mirrorball 6 High Sensitivity Microplate Cytometry (TTP Labtech): All buffers and reagents were pre-chilled to 4° C. […] mM EDTA and Mirrorball assay buffer—Live Cell Imaging Solution, LCIB (Invitrogen, 140 mM NaCl, 2.5 mM KCl, 1.8 mM CaCl₂, 1.0 mM MgCl₂, 20 mM Hepes, pH 7.4, mOsm=300). A 20 μl volume of a 1:1 mix of LCIB and 0.5×PBS/2.5 mM EDTA was added to all wells of each 384 well Mirrorball assay plate (Corning 3712); with the exception of row A which received 40 μl of 1000 nM test VHH antibody. Serial dilutions were prepared for each test variant within the Mirrorball 384 well assay plate. A 16-channel Finn pipette (Thermo Scientific) was used to transfer 20 μl of VHH antibody from row A-columns 1-24 into row B-columns 1-24 mixing 8×, then transferring 20 μl of VHH antibody from row B-columns 1-24 into row C-columns 1-24 mixing 8×. Dilutions were repeated until row G-columns 1-24 to create 7 point curve for each VHH antibody variant. A second set of test VHH antibody variants (1000 nM) were added to row I-columns 1-24 and the dilution protocol was repeated until row 0-columns 1-24. Row H-columns 1-24 were reserved on each plate for the reference FC5-H7 VHH single domain antibody. Row P-columns 1-24 received no antibody; this was background control for non-specific binding of the secondary to the cells of interest; thus 48 variants could be tested on each 384 well Mirrorball assay plate. Immortalized adult rat brain microvascular endothelial cells (SV-ARBEC) and/or human microvascular brain endothelial cells (HBEC-D3) were dissociated in Accutase solution (Sigma Aldrich) to generate single cell populations. Cells were washed in LCIB then centrifuged at 200×g, 5 min to pellet. Wash buffer was removed and the cell pellet was re-suspended into 1 mL of LCIB. Cell number was calculated using a Bio-Rad TC20 automated cell counter with Trypan Blue dye to assess viability. The cells were diluted to 350,000 live cells/ml using LCIB. A fluorescent conjugate c-myc Alexa 488 detection antibody (1600 ng/ml, Santa Cruz Biotechnology) supplemented with Draq 5 nuclear stain (2 uM, Cell Signaling) was prepared in LCIB assay buffer.
For B1, the “HBEC-D3 binding (MMFI at 1.3 µM antibody)” value was determined as 66.4 MMFI.
On the same count and under the same terms, the figure for B2 is 31 MMFI; for B3 it is 39.1 MMFI.
As to B4, the “HBEC-D3 binding (MMFI at 1.3 µM antibody)” value came out at 72.8 MMFI.
Same read-out and setting: the figure for B5 is 43.9 MMFI.

For the origin of these results see patent publication US20190241653A1 (NATIONAL RESEARCH COUNCIL OF CANADA, published 2019).
